Values belong to the compound of their own block, whether it stands above or below them. Numbered stars: 1 amine (or outer) side, 2 acyl side, 3 side chain; on linkers, the order of the positions; unused ones are H or OH. Bridge positions count the residues as written; N and C are the ends. Square brackets hold non-standard residues; d marks the D form. Side chains are listed from the residue outwards. Ends that are not written are not given here. Peptide text beside a SMILES is read from it. I, II: the chains in the order shown. * marks the point of attachment. ξ: configuration not given here. X6 = N=C(N)NCCC[C@H](CC(=O)[C@H](CCCCNC(=O)N1CCN(CC(=O)O)CC1)N[*:2])C(=O)C[C@@H](Cc1ccc(-c2ccccc2)nc1)C(=O)[*:1]; X7 = O=C(O)CCC(NC(=O)CCNC(=O)[C@H](CSCC(=O)[*:1])CC(=O)[C@H](CO)N[*:2])C(=O)O; X4 = O=C(O)c1ccc(C[C@H](N[*:1])C(=O)C[C@@H](CO)C(=O)[*:2])cc1; 3Pal(6-Ph) = N[C@@H](Cc1ccc(-c2ccccc2)nc1)C(=O)O; Phe(4-COOH) = N[C@@H](Cc1ccc(C(=O)O)cc1)C(=O)O; NMePhe(4-Me) = CN[C@@H](Cc1ccc(C)cc1)C(=O)O; Piperazinyl(4-CH2COOH) = O=C(O)CN1CCN(*)CC1; Bip = N[C@@H](Cc1ccc(-c2ccccc2)cc1)C(=O)O; Nle(6-COOH) = N[C@@H](CCCCC(=O)O)C(=O)O; X1 = N=C(CN)NCCC[C@H](N[*:1])C(=O)[*:2]; Phe(4-F) = N[C@@H](Cc1ccc(F)cc1)C(=O)O; cisHyp = O=C(O)[C@@H]1C[C@H](O)CN1; Hyp = O=C(O)[C@@H]1C[C@@H](O)CN1; NMeF = CN[C@@H](Cc1ccccc1)C(=O)O; Aad = N[C@@H](CCCC(=O)O)C(=O)O; Cha = N[C@@H](CC1CCCCC1)C(=O)O; Abu = CC[C@H](N)C(=O)O; X5 = O=C(C[*:1])[*:2]; CO = O=C([*:1])[*:2]; ξC = NC(CS)C(=O)O; βAla = NCCC(=O)O
Experiments:
BMP4 = target: T1, BMP4 (Homo sapiens, UniProt P12644); experiment: BMP4 signal transduction inhibitory activity: SMAD1 phosphorylation by BMP4 stimulus, AlphaLISA SureFire, A549 cells; format: cell-based; conditions: for aLISA BMP4 (0.2 nM) % inh: BMP4 0.2 nM stimulus, peptide conc. in assay 0.2, 2, 20 nM; for aLISA BMP4: A549 cells, peptides of Synthesis 2
T1 sequence (P12644 293-408): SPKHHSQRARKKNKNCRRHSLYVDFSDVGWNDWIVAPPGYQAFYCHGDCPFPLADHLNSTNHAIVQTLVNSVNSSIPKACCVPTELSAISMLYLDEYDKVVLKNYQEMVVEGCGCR

BMP7 = target: T2, BMP7 (Homo sapiens, UniProt P18075); experiment: BMP7 signal transduction inhibitory activity: SMAD1 phosphorylation by BMP7 stimulus, A549 cells; format: cell-based; conditions: for aLISA BMP7 (10 nM) % inh: BMP7 10 nM stimulus, peptide conc. in assay 1, 10, 100 nM; for aLISA BMP7: A549 cells, peptides of Synthesis 2
T2 sequence (P18075 293-431): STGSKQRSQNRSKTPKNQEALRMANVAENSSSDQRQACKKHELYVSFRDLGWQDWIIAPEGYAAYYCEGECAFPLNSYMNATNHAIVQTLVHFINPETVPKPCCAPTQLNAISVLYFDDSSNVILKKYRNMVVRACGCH
Procedure, shortened: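 Inhibition was measured as loss of BMP7-induced SMAD1 phosphorylation, using 10 nM BMP7 on A549 cells. Most peptides were given as three-concentration sets, such as 1/10/100, 10/100/1,000, 100/300/1,000 or 10/30/90 nM. Others were given as eight 1/3-ratio dilutions from 100 or 1,000 nM, alongside Noggin as control.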

[1] = inhibition of SMAD1 phosphorylation by BMP4 stimulus, classes A-C, ND
[2] = inhibition of SMAD1 phosphorylation by BMP7 stimulus, classes A-D, ND

Compound: 415 (FGFGAGDEAEFLPCAE; not fully specified; MOD_RES 3 F represents Methyl-L-phenylalanine(MeF); MOD_RES 5 A represents (S)-2-Amino-3-(6-phenylpyridin-3-yl)propanoic acid(3Py6Ph); MOD_RES 9 A represents (S)-2-Amino-3-cyclohexylpropanoic acid(Cha); MOD_RES 10 E represents L-2-Amino adipic acid (Hgl); MOD_RES 11 F represents Methyl-L-phenylalanine(MeF); MOD_RES 13 P represents (2S,4S)-4-Hydroxypyrrolidine-2-carboxylic acid(P4Sh); MOD_RES 15 A) [compound 415]
- aLISA BMP4 (0.2 nM) % inh (BMP4): ND (the inhibitory activity was less than 30% at the maximum concentration evaluated)
- aLISA BMP7 (10 nM) % inh (BMP7): D (showed less than 30% of inhibitory activity in 10 nM-addition zone and showed 30% or more of inhibitory activity in 100 nM-addition zone)

Compound: 416 ([Phe(4-F)]G[NMeF]G[3Pal(6-Ph)]GDE[Cha][Aad][NMePhe(4-Me)]L[cisHyp]C-NH2; not fully specified) [compound 416]
- aLISA BMP4 (0.2 nM) % inh (BMP4): ND (the inhibitory activity was less than 30% at the maximum concentration evaluated)
- aLISA BMP7 (10 nM) % inh (BMP7): D (showed less than 30% of inhibitory activity in 10 nM-addition zone and showed 30% or more of inhibitory activity in 100 nM-addition zone)

Compound: 418 (FG[NMeF]G[3Pal(6-Ph)]GDE[Cha][Aad][NMeF]L[Abu]C-NH2; not fully specified) [compound 418]
- aLISA BMP4 (0.2 nM) % inh (BMP4): ND (the inhibitory activity was less than 30% at the maximum concentration evaluated)
- aLISA BMP7 (10 nM) % inh (BMP7): D (showed less than 30% of inhibitory activity in 10 nM-addition zone and showed 30% or more of inhibitory activity in 100 nM-addition zone)

Compound: 419 (FG[NMeF]G[3Pal(6-Ph)]GDE[Cha][Aad][NMeF]L[Abu]C[βAla][dE]) [compound 419]
- aLISA BMP4 (0.2 nM) % inh (BMP4): ND (the inhibitory activity was less than 30% at the maximum concentration evaluated)
- aLISA BMP7 (10 nM) % inh (BMP7): D (showed less than 30% of inhibitory activity in 10 nM-addition zone and showed 30% or more of inhibitory activity in 100 nM-addition zone)

Compound: 420 ([Phe(4-F)]G[NMeF]G[3Pal(6-Ph)]GDE[Cha][Aad][NMePhe(4-Me)]L[Abu]C-NH2; also: cyclic peptide, ring closure not given here) [compound 420]
- aLISA BMP4 (0.2 nM) % inh (BMP4): ND (the inhibitory activity was less than 30% at the maximum concentration evaluated)
- aLISA BMP7 (10 nM) % inh (BMP7): D (showed less than 30% of inhibitory activity in 10 nM-addition zone and showed 30% or more of inhibitory activity in 100 nM-addition zone)

Compound: 421 ([Phe(4-F)]G[NMeF]G[3Pal(6-Ph)]GDE[Cha][Aad][NMePhe(4-Me)]L[Abu]C[βAla][dE]; also: cyclic peptide, ring closure not given here) [compound 421]
- aLISA BMP4 (0.2 nM) % inh (BMP4): ND (the inhibitory activity was less than 30% at the maximum concentration evaluated)
- aLISA BMP7 (10 nM) % inh (BMP7): D (showed less than 30% of inhibitory activity in 10 nM-addition zone and showed 30% or more of inhibitory activity in 100 nM-addition zone)

- IC50 (BMP4; Table 2-2, 277 from 20 nM (1/3), 417 from 300 nM (1/4), ND = IC50 was not calculated): 0.073 nM
- IC50 (BMP7; Table 2-2, 277 from 1,000 nM (1/3), 417 from 300 nM (1/4)): 455 nM
Compound: CC(C)[C@@H]1NC(=O)[C@H](Cc2ccc(C(=O)O)cc2)NC(=O)[C@H](C(C)C)NC(=O)[C@H](CCCNC(=N)N)NC(=O)[C@H](CCC(=O)O)NC(=O)CSC[C@@H](C(=O)NCC(N)=O)NC(=O)[C@H](CO)NC(=O)[C@H](Cc2ccc(C(=O)O)cc2)NC(=O)[C@H](Cc2ccc(C(=O)O)cc2)NC(=O)[C@H](Cc2ccc(O)cc2)NC(=O)[C@H](Cc2ccc(-c3ccccc3)cc2)NC(=O)[C@@H]2C[C@@H](O)CN2C(=O)[C@H](Cc2ccc(O)cc2)NC(=O)[C@H](CCCCNC(=O)N2CCN(CC(=O)O)CC2)NC(=O)[C@H](Cc2ccc(-c3ccccc3)nc2)NC(=O)[C@H](CCCNC(=N)N)NC(=O)[C@H](CCCCNC(=O)N2CCN(CC(=O)O)CC2)NC1=O [Peptide 277] ({CH2CO}-ERV[Phe(4-COOH)]VK([CO-Piperazinyl(4-CH2COOH)])R[3Pal(6-Ph)]K([CO-Piperazinyl(4-CH2COOH)])Y[Hyp][Bip]Y[Phe(4-COOH)][Phe(4-COOH)]SCG-NH2; thioether N-17)

Compound: CC(C)C[C@@H]1NC(=O)[C@H](Cc2ccc(O)cc2)NC(=O)[C@H](C(C)C)NC(=O)[C@H](CCCNC(=N)N)NC(=O)[C@H](CCCCC(=O)O)NC(=O)CSC[C@@H](C(=O)NCCC(=O)NC(CCC(=O)O)C(=O)O)CC(=O)[C@H](CO)NC(=O)[C@H](Cc2ccc(C(=O)O)cc2)NC(=O)[C@H](Cc2ccc(C(=O)O)cc2)NC(=O)[C@H](Cc2ccc(O)cc2)NC(=O)[C@H](Cc2ccc(-c3ccccc3)cc2)NC(=O)[C@H](C(C)C)NC(=O)[C@H](Cc2ccc(O)cc2)NC(=O)[C@@H]2CCCN2C(=O)[C@H](Cc2ccc(-c3ccccc3)nc2)NC(=O)[C@H](CCCNC(=N)CN)NC(=O)[C@H](CC(=O)O)NC1=O (some centres unmarked) [SEQ ID No. 84] ([Nle(6-COOH)]RVYLD[X1][3Pal(6-Ph)]PYV[Bip]Y[Phe(4-COOH)][Phe(4-COOH)]; linker N-C via X7)
- aLISA BMP4 (BMP4; [1]): A (showed an inhibitory activity of 50% or more in a zone to which the peptide was added to in an amount of 0.2 nM)
- aLISA BMP7 (BMP7; [2]): C (showed less than 50% of inhibitory activity in 10 nM-addition zone and showed 50% or more of inhibitory activity in 100 nM-addition zone)

Compound: CC(C)C[C@@H]1NC(=O)[C@H](Cc2ccc(O)cc2)NC(=O)[C@H](C(C)C)NC(=O)[C@H](CCCNC(=N)N)NC(=O)[C@H](CCCCC(=O)O)NC(=O)CSC[C@@H](C(=O)NCC(N)=O)NC(=O)[C@H](CO)NC(=O)[C@H](Cc2ccc(C(=O)O)cc2)NC(=O)[C@H](Cc2ccc(C(=O)O)cc2)NC(=O)[C@H](Cc2ccc(O)cc2)NC(=O)[C@H](Cc2ccc(-c3ccccc3)cc2)NC(=O)[C@H](C(C)C)NC(=O)[C@H](Cc2ccc(O)cc2)NC(=O)[C@H](CO)NC(=O)[C@H](Cc2ccc(-c3ccccc3)nc2)NC(=O)[C@H](CCCNC(=N)CN)NC(=O)[C@H](CC(=O)O)NC1=O [SEQ ID No. 87] ({CH2CO}-[Nle(6-COOH)]RVYLD[X1][3Pal(6-Ph)]SYV[Bip]Y[Phe(4-COOH)][Phe(4-COOH)]SCG-NH2; thioether N-17)
- BMP4 inhibitory activity (in words) (BMP4): same level of the BMP4 inhibitory activity as Noggin
- aLISA BMP4 (BMP4; [1]): A (showed an inhibitory activity of 50% or more in a zone to which the peptide was added to in an amount of 0.2 nM)
- BMP7 inhibitory activity (in words) (BMP7): does not inhibit signal transduction of BMP7
- aLISA BMP7 (BMP7; [2]): ND (the inhibitory activity was less than 30% at the maximum concentration evaluated)

Compound: CC(C)[C@@H]1NC(=O)[C@H](Cc2ccc(C(=O)O)cc2)NC(=O)[C@H](C(C)C)NC(=O)[C@H](CCCNC(=N)N)NC(=O)[C@H](CCC(=O)O)NC(=O)CSCC(C(=O)NCC(N)=O)NC(=O)[C@H](CO)CC(=O)[C@H](Cc2ccc(C(=O)O)cc2)NC(=O)[C@H](Cc2ccc(C(=O)O)cc2)NC(=O)[C@H](Cc2ccc(O)cc2)NC(=O)[C@H](Cc2ccc(-c3ccccc3)cc2)NC(=O)[C@@H]2C[C@@H](O)CN2C(=O)[C@H](Cc2ccc(O)cc2)NC(=O)[C@H](CCCCNC(=O)N2CCN(CC(=O)O)CC2)NC(=O)[C@H](Cc2ccc(-c3ccccc3)nc2)CC(=O)[C@H](CCCNC(=N)N)CC(=O)[C@H](CCCCNC(=O)N2CCN(CC(=O)O)CC2)NC1=O (stereo partly drawn) [SEQ ID No. 277, ClAc-E-R-V-F4COO-V-KCOpipzaa-R-3Py6Ph-KCOpipzaa-Y-Hyp-Bph-Y-F4COO-F4COO-S-C-G-NH2] (I: K([CO-Piperazinyl(4-CH2COOH)])Y[Hyp][Bip]Y[Phe(4-COOH)][X4][ξC]G-NH2 / II: ERV[Phe(4-COOH)]V; linker I:8-II:N via X5; linker I:N-II:C via X6)
- BMP4 inhibitory activity (in words) (BMP4): same level of the BMP4 inhibitory activity as Noggin
- aLISA BMP4 (BMP4; SMAD1 phosphorylation, peptide 0.02, 0.2, 2 nM): A (showed an inhibitory activity of 50% or more in a zone to which the peptide was added to in an amount of 0.2 nM)
- aLISA BMP7 (BMP7; 10 nM BMP7, peptide 1, 10, 100 nM): C (showed less than 50% of inhibitory activity in 10 nM-addition zone and showed 50% or more of inhibitory activity in 100 nM-addition zone)

Source: patent publication US20250361274A1, “PEPTIDE AND PEPTIDE-CONTAINING AGENT” (PEPTIDREAM INC., priority 2022, published 2025)
